From article PMC11187062
Several values for one entry are separate records, joined by “and”; a condition that tells them apart may be missing. Equal entries are not always repeated. Where two headings read alike, the source gives them in different places. Each block holds one substance with its values, some of them ahead of it.

Legend:
[1] = biological target: UHRF1 PHD finger PHD (Mus musculus) (UniProt Q8VDF2); details: cited from earlier work
hPHD D334A/D337A (human) = hPHD D334A/D337A (human) (UniProt Q96T88); experiment: ITC; Microcal PEAQ-ITC, 293 K, 10 mM HEPES pH 7.5, 150 mM NaCl, 0.25 mM TCEP; one-site model; at least three independent titrations
Sequence of hPHD D334A/D337A (human) (Q96T88 299-366 D334A/D337A): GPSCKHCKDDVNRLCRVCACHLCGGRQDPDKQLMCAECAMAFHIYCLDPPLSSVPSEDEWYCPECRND

[2] = biological target: UHRF1 PHD finger PHD (Homo sapiens) (UniProt Q96T88); details: cited from earlier work
Sequence of UHRF1 PHD finger PHD (Homo sapiens) (Q96T88 307-369): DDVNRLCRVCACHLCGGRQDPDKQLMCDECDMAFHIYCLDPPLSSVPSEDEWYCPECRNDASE

[3] = biological target: UHRF1 PHD finger PHD (Homo sapiens) (UniProt Q96T88); details: cited from earlier work; remark: listed apart in the source
[4] = biological target: human UHRF1 PHD finger, residues 299-366, D334A/D337A (human) (UniProt Q96T88); experiment: ITC; Microcal PEAQ-ITC, 293 K, 10 mM HEPES pH 7.5, 150 mM NaCl, 0.25 mM TCEP, one-site model; which partner was titrated is not stated; single titrations and their means
Sequence of human UHRF1 PHD finger, residues 299-366, D334A/D337A (human) (Q96T88 299-366 D334A/D337A): as the sequence (Q96T88 299-366 D334A/D337A) above

[5] = biological target: UHRF1 PHD finger PHD (Mus musculus) (UniProt Q8VDF2); details: cited from earlier work; remark: listed apart in the source

Sequence of UHRF1 PHD finger PHD (Mus musculus) (Q8VDF2 301-374): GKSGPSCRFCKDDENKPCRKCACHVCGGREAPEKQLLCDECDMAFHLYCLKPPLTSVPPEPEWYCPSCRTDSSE
Sequence of PAF15 1-10 (Q15004 whole entry, looked up, tested part not stated): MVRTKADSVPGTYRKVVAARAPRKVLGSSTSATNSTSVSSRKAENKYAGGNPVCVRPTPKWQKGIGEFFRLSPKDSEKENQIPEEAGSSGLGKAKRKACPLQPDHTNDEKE
Sequence of PAF15 (Q15004 whole entry): as the sequence (Q15004 whole entry, looked up, tested part not stated) above
Sequence of DPPA3 (Q8QZY3 whole entry): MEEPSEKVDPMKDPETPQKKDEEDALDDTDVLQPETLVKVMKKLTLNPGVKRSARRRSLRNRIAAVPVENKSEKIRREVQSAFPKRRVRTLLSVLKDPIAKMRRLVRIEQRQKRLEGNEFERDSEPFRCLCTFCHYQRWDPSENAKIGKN

Substance: PAF15 (from UniProt Q15004)
Kd [1]: 3.52 µM

Kd (hPHD D334A/D337A (human)): > 115 µM
Substance: human DPPA3, residues 81–118 (recombinant) (domain or fragment)

Substance: PAF15 1-10 (from UniProt Q15004)
Kd [2]: 2.2 µM

Substance: histone H3 1-15 (from UniProt P68431)
Kd [3]: 1.7 µM

Kd [4]: 114 µM and 91 µM and 139 µM
Substance: human DPPA3, residues 81-118 (domain or fragment)

Substance: DPPA3 (from UniProt Q8QZY3)
Kd [5]: 0.0277 µM
